According to the domain aggregation screens of Martell et al. (2025):

Assay: soluble fraction after stress (log2 fold change); higher = more stays soluble; pooled small domains, quantitative proteomics
Settings: stress: 50 degC
Procedure, shortened: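 Pooled custom libraries of small protein domains were measured in a high-throughput format, with quantitative proteomics as the read-out. Each library was stressed at 50°C. Aggregation propensity is given as the base-two logarithm of the fold change in how much of each protein stays soluble after the stress. Higher values mean a larger share of the protein remains in solution.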

For “HMELPMGTQLPPERELAQQMQVSRAVVNGGLAELAQQGFLEVRPRQGTFVADYRRKGNLSTLIAIMEY”, the “soluble fraction (log2)” value was 0.0153.
With “HMRLSESLLDDIPGIGAARKRALLQSFGSVRKLRHADAEEIAAKVPGIGLNFAEKIVEALRKK” the “soluble fraction (log2)” value was 0.205.
In the case of “HMAAEEAFPGGRIVQNAEENRLQILFDEIPGEDVRAALKSHGFRWSPKNKAWQRQLTQNAEYDARRILGI”, the “soluble fraction (log2)” value is reported as -0.00473.
For “HMSSKFKIVGEILSIKKSDILYIIEILSNNEVVKATAVEDEIKDLKIGDKILLSSKAFNPIVNK”, the “soluble fraction (log2)” value was -0.487.
With “HMKHYIDFIAEQLKTLTAIPSPSGYTKNATDYLMKLLQDMGYEPKLSRKGNVFVTLGGDGEPLVLAAHVD” the “soluble fraction (log2)” value was -0.114.
With “HMPSYYKELQNYSPENPVVKKRKVHPDVVNAIKYLAEITDGNPMLIKAYAQMILAHVFTTMPLIDKSV” the “soluble fraction (log2)” value was -0.128.
For “HMPTSLPGIDIDEKNIVSSTGALSFKKVPKKLAIIGGGYIGLEMGSVWSRLGSSVTVIEYLNFITPG”, the “soluble fraction (log2)” value was -0.00687.
For “HMAEQVLHQKLAARRKELNSLVAQVARVRGIPHSHVHSGLRREAGGPPLAQATTDQVEARISLARKWLRA”, the “soluble fraction (log2)” value was -0.728.
In the case of “HMVKIIHYEVYANRGDGWKLVDQFSADQRQEAVNLAKEIETEDQVAVKIIREIFDVQDNTYQESVEYIG”, the “soluble fraction (log2)” value is reported as -0.51.
For “HMITANNYFNEVERIGVETLPETLRKGHDLVVRSTNSGTNWSNYQNNESIRKVIDLYLQKLNEYVSTST”, the “soluble fraction (log2)” value was 0.131.
With “HMAKITERVMGSAALRDYDPNYLPDEVLKALDGYPPFDGYVYKDGILYARVKIGDTFFIIPPI” the “soluble fraction (log2)” value was -2.27.
For “HMYSQEEKRYMEIMEIKPQELSAENLKKQYKKLVKKYHPDLHQDDKQAAEEKFKQLTNAYQVLMRRF”, the “soluble fraction (log2)” value was 0.0779.
In the case of “HMEVMYFIYQQEEPMRIDKFLVNEMEDFSRNSIQIYIKDNHVLVNDKVVKANYILKKGDAISITIPDPI”, the “soluble fraction (log2)” value is reported as -0.404.
In the case of “HMLPDHAPITMRQLAMLHVAKNKLDLTDEDYRSLLLLYGGVESSKQLNQEGLRRVLDRFKELGFEP”, the “soluble fraction (log2)” value is reported as -0.0947.
For “HMDSTDSIIHYVRAHRSLEVKNLSFAEARFKKVVELEPNFARGWLGLGEVSILKNNFENASIYLDKALE”, the “soluble fraction (log2)” value was -0.463.
With “HMEPDEYTVRQAFMKFDVGGEGRVPRDKLKALLETLGLELSAQQVRESEEQLDPEGTGFTSYGDFLMWWN” the “soluble fraction (log2)” value was -1.12.
For “HMVDTSDLPAIVEKVFADNPEQVNDILNGKDRVKGFLVGQIMKATRGQAPPDEVNKLIDATLEKMKAA”, the “soluble fraction (log2)” value was 0.0819.
With “HMEGVTVPDVTRISLDEAEELLTSYGLRFEVADRRANSAFPGNYVIDQAPSAEVIVKPNRKIYLTVNAA” the “soluble fraction (log2)” value was -0.134.
With “HMVRKGEINFDQLSVRARNALRNMNILFEKEILKLTEYDLKSIPNLGVKTTNELLSYIKRLQTNQKEE” the “soluble fraction (log2)” value was -0.191.
In the case of “HMPIDNTLLSRITSLGVSTTEAEKLISKHGEEALKANLEVVEERLSKPNLPLLDSPAAYLKTALKNG”, the “soluble fraction (log2)” value is reported as 0.318.
For “HMTRHSSVDFAGYILRNKENEPIFGFGKHKGKTVVEVLQREQGYFGWLMEADFPLYTKKVLTAIRLNTLNS”, the “soluble fraction (log2)” value was -0.117.
For “HMNEGETLYRLRAGDGRARLDKFLAAALPDISRTRFKGLIESGHVRVGGETITEPAYRVKSEAEVELTVPE”, the “soluble fraction (log2)” value was 0.0139.
For “HMEIYEEDRTKVVNDLMDQILNRQITMDAAATKFINIRNSLGTTITKEDEQNLEMLRGLIFDKT”, the “soluble fraction (log2)” value was 0.16.
In the case of “HMAERLQARIDAPGVRLDKALAETFPTLSRARLQALLADGAVTRDGQTVSNGSAKAQPGLYVVALPPVA”, the “soluble fraction (log2)” value is reported as 0.381.
In the case of “HMEVPVQYIKFKIPENHFWAKKKVADIILPPETLLVLLQRGSDKMIPDGETVLLPEDTLVLIAKAPG”, the “soluble fraction (log2)” value is reported as -0.0836.
For “HMALLSDEERIATVFAARLGGYSHQEIYKLLQDRFGPSLPAAYSEKSVLTDLQTALSQVPSL”, the “soluble fraction (log2)” value was -0.208.
For “HMTAPELSVGDYLEYRGKEYKVESLDMDGFITLTDTALEDAPRLISRVTFLTDEFIRSGEYMVIT”, the “soluble fraction (log2)” value was -0.169.
